Experimental data from patent publication US20020132976A1 (published 2002).

Biological target: T1, membrane-bound HLA-A0201 molecule on T2 cells (human)
T1 construct: whole, on cells; also called surface HLA-A0201 molecules; human MHC class 1 molecule
Experiment: T2 cell HLA-A0201 stabilisation, BB7.2 staining, flow cytometry
Experimental: Thus, the detection of this specific epitope is indicative of stable membrane-bound HLA-A0201 molecules loaded with peptide. Subsequent dissociation of peptides from the HLA class 1 MHC molecules results in the loss of BB7.2 monoclonal antibody binding.
T2 cells were propagated in Iscove's complete medium (iscove's medium supplemented with 10% heat-inactivated bovine serum, 120.0 units per ml of penicillin G sodium, 120 μg per ml of streptomycin sulphate, and 0.35 mg per ml of L-glutamine). The ability of PSA peptides (Table 1) to bind and stabilize surface HLA-A0201 molecules on T2 cells was determined utilizing a protocol documented in the art (Deng, Y. (1997) J Immune 158:1507-1515). In essence, 0.5×10⁶ T2 cells were incubated with 125.0 μM of the test peptide in 200.0 μl of serum-free culture medium (Iscove's medium supplemented with 120.0 units per ml of penicillin G sodium, 120.0 μg per ml of streptomycin sulphate and 0.35 mg per ml of L-glutamine) overnight at 37° C. Subsequently, cells were washed twice with Iscove's medium (without bovine serum) to remove free PSA peptide. […] The binding of BB7.2 was detected via the addition of 100.0 μl of PBA containing […] of goat anti-mouse IgG-Fc fluorescein (FITC) conjugate (BETHYL Laboratories Inc.). […] Samples were analyzed by Flow Cytometry. Results were expressed in units of Fluorescence Index (FI), calculated by the equation: […]

binding result: no binding
B1: CLP-317 (peptide)
peptide: DLHVISNDV
